Measured values as given in patent publication US9512178B2, “Neurogenic brain-derived neurotrophic factor peptides” (Research Foundation for Mental Hygiene, Inc., priority 2012, dated 2016).

Key:
[1] = biological target: T1, TrkB receptor (Mus musculus, UniProt P15209); assay: TrkB phosphorylation (Tyr 706) and TrkB level in primary E18 hippocampal cells, with or without K252a; assay type: cell-based; conditions: 20 ng/ml
T1 construct: endogenous in cells; host or cells: primary hippocampal neurons from embryonic day 18 C57BL/6 mice
Experimental: Peptides were dissolved in water in serial dilutions of 10 mM, 1 mM, 100 μM and 10 μM from which the necessary amount was added directly to the culture medium to a final concentration of 0.05 μM, 1 μM, or 10 μM. The BDNF (Peprotech, NJ, USA) was used as a reference in concentrations of 20 ng/ml (0.79 nM) and 100 ng/ml (3.95 nM). Cycloheximide (CHX) (Sigma-Aldrich, St Louis, Mo., USA) was used for blocking protein synthesis. CHX original stock was 100 mg/ml (355.4 mM) in DMSO; from a second stock of 35.54 mM in DMSO, the dilutions were made to the final concentrations of 100 μM. The K252a (CALBIOCHEM/EMD) was used to inhibit the TrkB Receptor. From a stock of 100 μM in DMSO, K252a was diluted to a final working concentration of 200 nM. The E18 primary hippocampal cells were pre-treated with CHX or K252a 1 h prior to the addition of the peptides or BDNF and a time course of these treatments for 15 min, 60 min and 2 days was studied.
Following treatment in 6-well plates, cells were washed 2× in glucose buffered saline, GBS (5.4 mM KCl, 138 mM NaCl, 22 mM glucose, and 2 mM Na—KPO pH 7.2), and then lysed by 5 min incubation on ice in 100 or 150 μl of ice-cold RIPA buffer (PBS, 1% w/v NP-40 from Fisher Scientific, 0.1% w/v SDS, and 0.5% w/v sodium desoxycholate) containing 1 mM AEBSF (Gold Biotechnology, St. Louis, Mo., USA), 10 μg/ml aprotinin (Sigma-Aldrich, St. Louis, Mo., USA), and 20 μg/ml of leupeptin and pepstatin (US Biochemicals, Cleveland, Ohio, USA), and phosphatase inhibitors: NaF, Na orthovanadate, (3-glycerophosphate, and microcystein (Sigma-Aldrich, St. Louis, Mo., USA). Extracts were prepared by collecting and pooling a minimum of 2 wells by scraping, and lysates were centrifuged at 20,000×g for 10 min at 4° C. Protein concentration of each cell lysate was determined using the BCA kit (Thermo Scientific, Rockford, Ill., USA). The lysates (7.5-20 μg total protein) were separated on 10% SDS-PAGE gels (except for BDNF where 12% gels were employed) and transferred to 0.45 μm PVDF membrane (Pall, Pensacola, Fla., USA) for probing with antibodies as noted. Blots were blocked for 1 hr at 37° C. in 1×TBST (0.05% Tween 20 in TBS) containing 5% w/v blotting grade dry milk (Bio-rad, Hercules, Calif., USA), incubated in primary antibody overnight in blocking buffer at 4° C., washed 3×10 min in TBST at room temperature, followed by incubation with secondary antibody, i.e., peroxidase-conjugated anti-mouse or anti rabbit IgG (Jackson ImmunoResearch Laboratories, West Grove, Pa., USA) diluted in blocking buffer. Blots were washed 3×10 min in TBST and immunoreactive protein bands were visualized with enhanced chemiluminescence (ECL) reagents (Pierce, Rockford, Ill., USA). The ECL films of the blots were scanned and analyzed using Multi Gauge software version 3.0 (Fujifilm, Tokyo, Japan).
The following primary antibodies were used: rabbit polyclonal anti-NFM (1:1000; Chemicon/Millipore, Billerica, Mass., USA); mouse monoclonal anti-NeuN, clone A60 (1:500; Millipore, Billerica, Mass., USA); rabbit polyclonal anti-Tuj-1, (3—III-tubulin (Covance; 1:800, Emeryville, Calif., USA); mouse monoclonal SMI 52 to the adult isoforms of MAP-2, MAP2a,b (1:1000; Covance, Emeryvilly, Calif., USA); rabbit polyclonal anti-Synapsin I (1:2000; Stressgen, Farmingdale, N.Y., USA); rabbit monoclonal anti-PSD95 (1:1000; Cell signaling, Danvers, Mass., USA); anti tau 92e (1:10000); mouse monoclonal anti-BDNF (1:1000; Calbiochem, Gibbstown, N.J., USA); rabbit polyclonal anti-TrkB (total) (1:500; Santa Cruz Biotechnology, Santa Cruz, Calif., USA); rabbit polyclonal anti-pTrkB (Tyr706) (1:400; Santa Cruz Biotechnology, Santa Cruz, Calif., USA), TrkC (1:1000; Cruz Biotechnology, Santa Cruz, Calif., USA); and pTrkY490 (1:500; Upstate USA Inc., Charlottesville, Va., USA). For loading control, the blots were developed with rabbit polyclonal antibody to GAPDH (1:2000; Santa Cruz Biotechnology, Santa Cruz, Calif., USA). […]

[2] = biological target: T2, TrkC (Homo sapiens, UniProt Q16288); assay: Trk phosphorylation and TrkC expression in TrkC stably-expressing NIH-3T3 cells; assay type: cell-based; conditions: 20 ng/mL
T2 construct: expressed in transfected cells; host or cells: NIH-3T3 fibroblasts

[3] = in vivo; cited from earlier work
[4] = direct administration into the CNS; cited from earlier work

T2 sequence (Q16288 32-839, species assumed): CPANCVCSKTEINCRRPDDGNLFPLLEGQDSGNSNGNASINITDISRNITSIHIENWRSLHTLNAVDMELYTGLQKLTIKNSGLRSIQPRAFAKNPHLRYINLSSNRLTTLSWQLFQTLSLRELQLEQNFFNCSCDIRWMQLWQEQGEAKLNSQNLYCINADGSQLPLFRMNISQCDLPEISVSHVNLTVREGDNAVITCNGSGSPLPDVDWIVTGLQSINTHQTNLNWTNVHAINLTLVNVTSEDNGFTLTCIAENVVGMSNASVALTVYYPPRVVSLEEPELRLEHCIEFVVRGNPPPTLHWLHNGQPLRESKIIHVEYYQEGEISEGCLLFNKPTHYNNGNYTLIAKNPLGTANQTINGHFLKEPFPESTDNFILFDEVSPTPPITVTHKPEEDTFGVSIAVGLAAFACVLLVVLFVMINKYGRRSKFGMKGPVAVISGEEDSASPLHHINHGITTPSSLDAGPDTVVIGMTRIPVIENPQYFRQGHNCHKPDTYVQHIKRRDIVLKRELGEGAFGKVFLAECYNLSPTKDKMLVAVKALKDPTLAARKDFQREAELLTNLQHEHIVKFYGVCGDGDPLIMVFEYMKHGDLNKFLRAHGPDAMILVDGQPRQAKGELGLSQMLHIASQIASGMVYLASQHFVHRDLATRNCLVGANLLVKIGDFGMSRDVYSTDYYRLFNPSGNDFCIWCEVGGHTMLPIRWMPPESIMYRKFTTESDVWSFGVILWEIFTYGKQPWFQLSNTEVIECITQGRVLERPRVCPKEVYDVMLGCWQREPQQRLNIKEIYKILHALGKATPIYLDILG
T1 sequence (P15209 32-821): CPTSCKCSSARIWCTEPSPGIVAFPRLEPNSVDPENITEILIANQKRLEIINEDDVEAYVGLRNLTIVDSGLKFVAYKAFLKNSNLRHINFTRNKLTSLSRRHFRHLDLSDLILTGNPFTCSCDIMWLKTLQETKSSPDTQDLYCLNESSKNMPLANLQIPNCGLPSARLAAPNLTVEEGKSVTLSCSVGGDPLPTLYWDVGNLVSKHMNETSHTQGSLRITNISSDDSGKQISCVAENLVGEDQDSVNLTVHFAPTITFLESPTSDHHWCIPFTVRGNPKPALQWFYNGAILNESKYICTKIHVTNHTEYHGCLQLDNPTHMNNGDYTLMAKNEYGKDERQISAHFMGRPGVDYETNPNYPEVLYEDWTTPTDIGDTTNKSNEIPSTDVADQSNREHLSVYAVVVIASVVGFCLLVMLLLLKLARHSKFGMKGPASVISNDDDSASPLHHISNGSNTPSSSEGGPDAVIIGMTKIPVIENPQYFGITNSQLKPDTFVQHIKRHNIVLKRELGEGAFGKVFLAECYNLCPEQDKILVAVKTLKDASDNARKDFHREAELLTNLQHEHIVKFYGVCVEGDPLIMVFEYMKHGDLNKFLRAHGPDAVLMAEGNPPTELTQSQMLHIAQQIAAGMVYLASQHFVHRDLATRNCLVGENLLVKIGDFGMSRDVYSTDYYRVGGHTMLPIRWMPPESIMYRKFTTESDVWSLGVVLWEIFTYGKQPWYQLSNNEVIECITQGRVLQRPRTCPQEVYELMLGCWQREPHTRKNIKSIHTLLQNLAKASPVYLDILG

B1: BDNF: Brain derived neurotrophic factor (Peprotech), used as a reference at 20 ng/ml and 100 ng/ml (protein, UniProt P23560 19-247, looked up)
Neurotrophic factor BDNF …: APMKEANIRGQGGLAYPGVRTHGTLESVNGPKAGSRGLTSLADTFEHVIEELLDEDQKVRPNEENNKDADLYTSRVMLSSQVPLEPPLLFLLEEYKNYLDAANMSMRVRRHSDPARRGELSVCDSISEWVTAADKKTAVDMSGGTVTVLEKVPVSKGQLKQYFYETKCNPMGYTKEGCRGIDKRHWNSQCRTTQSYVRALTMDSKKRIGWRFIRIDTSCVCTLTIKRGR
[1]; 5 min, without K252a
  increase in the phosphorylation of the TrkB receptor: significant
[1]; 1 h
  activation of TrkB (pTrkB Tyr 706 normalized to total TrkB): strong and significant activation
[2]
  activation of TrkC receptor: neither the peptides nor BDNF were able to activate this receptor
  expression of TrkC: neither BDNF (20 ng/mL) nor peptides B-5 (1 μM) and B-3 (1 μM) were able to modify the expression of TrkC
[3]
  blood brain barrier (BBB) and intraparenchymal penetrations: poor
  plasma half-life: less than 1 min
[4]
  undesirable effects: weight loss, dysaesthesias (impairment of sensation), and in some cases, pain
